These results are taken from patent publication US8623366B2, “Methods for treating visceral pain by administering antagonist antibodies directed against calcitonin gene-related peptide” (Labrys Biologics, Inc., priority 2009, dated 2014).

Changes are numbered by the printed parent chain. Names may count otherwise. Where two headings read alike, the source gives them in different places.

Series [1] concerns visceral hypersensitivity (VH). The note with it: systemically injected; Delafoy 2006, Plourde 1997, Julia and Bueno 1997; cited from earlier work.
A further series concerns TNBS treated rats. The experiment in a line: Rat TNBS colitis visceral pain model, balloon distension of the colon. In kind it is in vivo. The note with it: intravenous, FIG. 1A and 1B. The procedure:
Colorectal distension after TNBS-induced colitis in rats is an animal model that has been used by many researchers to explore the mechanisms of visceral hypersensitivity (Gay et al, 2006, Delafoy et al, 2006, Adam et al., 2006). In this Example, the rat TNBS colitis model was used to test the effect of a function-blocking antibody for CGRP. In the model, as in the human IBS studies, the visceral pain threshold is measured by response to balloon distension of the colon.
After overnight fasting, rats were anesthetized with ketamine (80 mg/ml)/xylazine (12 mg/ml) at a dosage of 1 ml/kg. An abdominal laparotomy was performed and a TNBS solution (50 mg at 1.5 ml/kg in 30% ethanol, “TNBS treatment group”) or 30% ethanol solution (“sham group”) was injected into the proximal colon 1 cm distal from ceacum. The sham group was used as a non-colitis control. […]
The seventh day following surgery, after a second overnight fast, TNBS treated rats sustaining a weight loss of no greater than 11% were tested for visceral pain threshold with balloon distension. […] Balloon distension was halted at the threshold pressure required to elicit a stereotypical rodent visceral pain posture known as the alpha position (repeated waves of contraction of oblique musculature with inward turning of the hindpaw) and this was recorded as the visceral pain threshold.

For series [2] the following is noted: cited from earlier work.
Series [3] concerns the target T1, human α-CGRP (Homo sapiens, UniProt P06881).
T1 sequence (P06881 83-119 limits assumed): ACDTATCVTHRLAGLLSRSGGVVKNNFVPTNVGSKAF
The series is described as follows: Biacore interaction analysis of Fab fragments, N-biotin α-human/cyno CGRP on chip. In kind it is binding. Here is the method: (§1) Interaction analysis was conducted at 25° C. and at 37° C. on a Biacore 3000™ system equipped with streptavidin-coated (SA) sensor chips (Biacore AB, Uppsala, Sweden) using standard Biacore running buffers (HBS-P or HBS-EP). N-LC-biotinylated human and rat α- and β-CGRPs were captured on individual flow cells at low levels (typically 100 response units) to provide the reaction surfaces, while an unmodified flow cell served as a reference channel. Purified Fab fragments of antibodies G1 and G2 were generated. Typically, Fabs were prepared as a two-fold serial dilution using 0.5 μM as the top concentration and injected for 1-min at 100 μl/min allowing up to two hours for the dissociation time. Surfaces were regenerated with a mixture of 50% v/v ethanol+25 mM NaOH for G1 Fab and 2:1 v/v Pierce Gentle Elution Buffer/4M NaCl for G2 Fab. […] The binding responses were double-referenced and fit globally to a simple model using BiaEvaluation v. 4.0 software. Affinities were deduced from the quotient of the kinetic rate constants (KD=koff/kon).
(§2) As such, the offrate (koff) cannot be measured accurately unless the dissociation phase is monitored for a very long time. As a general rule-of-thumb, the binding response decays at least 5% over the allowed dissociation time for the report of an accurate offrate. However, monitoring long dissociation times on the Biacore is hindered by baseline drift, which is particularly challenging when working at the low surface capacities required for kinetic analyses. In this study, the dissociation phase was followed for two hours over the α-CGRPs but only 20 mins over the β-CGRPs. As a result, the offrates for β-CGRPs cannot be resolved as accurately as those for α-CGRPs.
(In general: SPR reads the build-up and loss of mass on a sensor chip optically.)

The target of another series is T2, rat α-CGRP (Rattus norvegicus, UniProt P01256).
T2 sequence (P01256 83-119 limits assumed): T1 sequence (P06881 83-119 limits assumed) with A1S, D3N, N25D, K35E
The series is described as follows: Biacore interaction analysis of Fab fragments, N-biotin α-rat CGRP on chip. Type of series: binding. The procedure:
as §1, §2

Another series concerns the target T3, rat β-CGRP (Rattus norvegicus, UniProt P10093, R105S).
T3 sequence (P10093 89-125 R105S limits assumed): T1 sequence (P06881 83-119 limits assumed) with A1S, D3N, N25D
The series is described as follows: Biacore interaction analysis of Fab fragments, N-biotin β-rat CGRP on chip. In kind it is binding. Here is the method: as §1, §2
The results for antibody G2 are expressed in Table 2.

Series [4] addresses T1, human α-CGRP. The conditions noted are these: Table 6 reproduced from WO2007/054809; cited from earlier work.
The target of series [5] is T4, human α-CGRP binding to the CGRP1-receptor (Homo sapiens, UniProt P06881).
T4 construct: host or cells: receptor: endogenous, membranes of SK-N-MC cells
T4 sequence (P06881 83-119 limits assumed): T1 sequence (P06881 83-119 limits assumed)
The series is described as follows: Binding assay: blocking 125I-human α-CGRP from binding to CGRP1-receptor on SK-N-MC cell membranes. The note with it: IC50 higher than Biacore KD at equivalent temperature. Here is the method:
A binding assay was performed to measure the IC50 of anti-CGRP G1 antibody in blocking human α-CGRP from binding to the CGRP1-receptor. […] Incubation was terminated by filtration through a glass microfiber filter (GF/B, 1 μm) which had been blocked with 0.5% polyethylenimine. The protein-bound radioactivity was determined in a gamma counter.

The target of a further series is T5, human β-CGRP (Homo sapiens, UniProt P10092).
T5 construct: and
T5 sequence (P10092 82-118 limits assumed): T1 sequence (P06881 83-119 limits assumed) with D3N, V22M, N25S
The series is described as follows: Biacore interaction analysis of Fab fragments, N-biotin β-human/cyno CGRP on chip. Type of series: binding. Here is the method:
as §1, §2

The next series deals with T6, α-rat CGRP (Rattus norvegicus, UniProt P01256).
T6 sequence (P01256 83-119 limits assumed): T1 sequence (P06881 83-119 limits assumed) with A1S, D3N, N25D, K35E
The note with it: Table 6 reproduced from WO2007/054809; cited from earlier work.

Where [6] appears, read: β-rat CGRP, 37° C., Fab, 20 min dissociation.
Where [7] appears, read: β-human/cyno CGRP, 37° C., 20 min dissociation.

Take CGRP 8-37: a CGRP receptor antagonist: in series [1], the “reversing visceral hypersensitivity (VH)” value is “effective in reversing visceral hypersensitivity (VH)”. The “effect on visceral pain threshold, 4901 compared with CGRP 8-37” value with TNBS treated rats is “comparable”. Also, the half-life in-vivo entry in [2] was “very short half-life in-vivo”.

Consider “G1: anti-CGRP antagonist antibody produced by expression vectors ATCC PTA-6867 and PTA-6866; VH SEQ ID NO: 1, VL SEQ ID NO: 2 [Clone G1]”, for which the off-rate (koff) is 7.8e-06 s⁻¹ with human α-CGRP [3] (25° C.); 3.63e-05 s⁻¹ in the series with human α-CGRP [3] (37° C.); 6.18e-05 s⁻¹ in the series with rat α-CGRP (25° C.); 0.000399 s⁻¹ with rat α-CGRP (37° C.); under 7.85e-05 s⁻¹ with rat β-CGRP (setting [6]); under 6.98e-05 s⁻¹ in the series with human β-CGRP (setting [7]). Moreover, the “kon” value with human α-CGRP [3] (25° C.) came to 186000 M⁻¹ s⁻¹; in the series with human α-CGRP [3] (37° C.), 587000 M⁻¹ s⁻¹; with rat α-CGRP (25° C.), 50800 M⁻¹ s⁻¹; with rat α-CGRP (37° C.), 155000 M⁻¹ s⁻¹; in the series with rat β-CGRP (setting [6]), 516000 M⁻¹ s⁻¹; in the series with human β-CGRP (setting [7]), 451000 M⁻¹ s⁻¹. The “α-human koff” value with human α-CGRP [4] was 3.63e-05 s⁻¹. For the same molecule, the “IC50 relative to KD observed by Biacore” value in series [5] stood at 23 fold. In the series with α-rat CGRP, the “α-rat koff” value was 0.000399 s⁻¹.

B1: G2: anti-rat CGRP mouse monoclonal antibody as described in Wong H C et al. Hybridoma 12:93-106, 1993; VH SEQ ID NO: 19, VL SEQ ID NO: 20 (antibody, V domains shown)
VH: EVQLQQSGPELVKPGASVKMSCKASGYTFTSSVMHWVKQKPGQGLEWIGYINPYNDGTKYNEKFKGKATLTSDKSSSTAYMELSSLTSEDSAVYYCAKGGNDGYWGQGTTLTVSS
VL: EIVLTQSPTTMAASPGEKITITCSASSSISSIYLHWYQQKPGFSPKVLIYRASNLASGVPARFSGSGSGTSYSLTIGTMEAEDVATYYCQQGSTIPFTFGSGTKLEIK
modifications: Synthetic polypeptide, Antibody G2 heavy chain variable region; Synthetic polypeptide, Antibody G2 light chain variable region
Regarding B1, the Kd in the series with human α-CGRP [3] (25° C.) stood at 19 nM; with human β-CGRP (β-human CGRP, 25° C.), 20 nM. Also, the “koff” value with human α-CGRP [3] (25° C.) stood at 0.00115 s⁻¹; with human α-CGRP [3] (37° C.), 0.0039 s⁻¹; with rat α-CGRP (25° C.) it was 0.000214 s⁻¹; in the series with rat α-CGRP (37° C.), 0.0017 s⁻¹; in the series with human β-CGRP (β-human CGRP, 25° C.) it was 0.00162 s⁻¹. Moreover, the “kon” value with human α-CGRP [3] (25° C.) stood at 60300 M⁻¹ s⁻¹; in the series with human α-CGRP [3] (37° C.), 93000 M⁻¹ s⁻¹; with rat α-CGRP (25° C.), 231000 M⁻¹ s⁻¹; with rat α-CGRP (37° C.), 500000 M⁻¹ s⁻¹; with human β-CGRP (β-human CGRP, 25° C.), 81400 M⁻¹ s⁻¹. For the same molecule, the “binding characteristics to β-rat CGRP” value with rat β-CGRP (reverse orientation assay format (data not shown)) is “comparable binding characteristics to α- and β-human CGRPs”.

B2: M23: G1 variant: L1 R28G; HC-FW3 L99T A100V (antibody, chains of the INN, looked up, variant L:R28G H:L99T H:A100V, V domains shown)
VH: EVQLVESGGGLVQPGGSLRLSCAASGFTFSNYWISWVRQAPGKGLEWVAEIRSESDASATHYAEAVKGRFTISRDNAKNSLYLQMNSLRAEDTAVYYCTVYFDYGLAIQNYWGQGTLVTVSS
VL: EIVLTQSPATLSLSPGERATLSCKASKGVTTYVSWYQQKPGQAPRLLIYGASNRYLGIPARFSGSGSGTDFTLTISSLEPEDFAVYYCSQSYNYPYTFGQGTKLEIK
Turning to B2, the Kd in the series with human α-CGRP [4] was 0.81 nM; with α-rat CGRP it was 44.4 nM.

B3: M24: G1 variant: L1 R28L; HC-FW3 L99T A100V (antibody, chains of the INN, looked up, variant L:R28L H:L99T H:A100V, V domains shown)
VH: B2 VH
VL: B2 VL with G28L
As for B3, the Kd with human α-CGRP [4] is 0.93 nM; in the series with α-rat CGRP, 57.8 nM.

B4: M37: G1 variant: L1 R28N T30S; H2 A57G; HC-FW3 L99T A100V (antibody, chains of the INN, looked up, variant L:R28N L:T30S H:A57G H:L99T H:A100V, V domains shown)
VH: B2 VH with A57G
VL: B2 VL with G28N, T30S
As for B4, the Kd was 1.41 nM with human α-CGRP [4] and 80.6 nM with α-rat CGRP.

B5: M31: G1 variant: L1 R28N T30G; H2 E54K A57G; HC-FW3 L99T A100V (antibody, chains of the INN, looked up, variant L:R28N L:T30G H:E54K H:A57G H:L99T H:A100V, V domains shown)
VH: B2 VH with E54K, A57G
VL: B2 VL with G28N, T30G
Turning to B5, the Kd was 2.17 nM with human α-CGRP [4] and 201 nM in the series with α-rat CGRP.

B6: M38: G1 variant: L1 R28N T30W; HC-FW3 L99T A100V (antibody, chains of the INN, looked up, variant L:R28N L:T30W H:L99T H:A100V, V domains shown)
VH: B2 VH
VL: B2 VL with G28N, T30W
Consider B6, for which the Kd is 1.36 nM with human α-CGRP [4] and 284 nM in the series with α-rat CGRP.

B7: M26: G1 variant: L1 R28N; H2 A57G; HC-FW3 L99T A100V (antibody, chains of the INN, looked up, variant L:R28N H:A57G H:L99T H:A100V, V domains shown)
VH: B2 VH with A57G
VL: B2 VL with G28N
For the molecule B7, the Kd is 0.93 nM with human α-CGRP [4] and 51.3 nM with α-rat CGRP.

B8: M28: G1 variant: L1 R28N T30D; H2 E54R A57N; HC-FW3 L99T A100V (antibody, chains of the INN, looked up, variant L:R28N L:T30D H:E54R H:A57N H:L99T H:A100V, V domains shown)
VH: B2 VH with E54R, A57N
VL: B2 VL with G28N, T30D
B8: the Kd was 0.62 nM with human α-CGRP [4] and 69.4 nM with α-rat CGRP.

B9: M27: G1 variant: L1 R28N T30A; HC-FW3 L99T A100V (antibody, chains of the INN, looked up, variant L:R28N L:T30A H:L99T H:A100V, V domains shown)
VH: B2 VH
VL: B2 VL with G28N, T30A
B9: the Kd is 2.23 nM with human α-CGRP [4] and 189 nM in the series with α-rat CGRP.

A word on the koff: it is the rate constant with which the complex falls apart. The term kon denotes the rate constant with which the complex forms. The low end stands for slower complex formation, the high end for faster complex formation. One may read the Kd as the free concentration of one partner at which half of the binding sites on the other are occupied at equilibrium, for simple one-to-one binding.
